Measurements published in patent publication US20230192877A1 (NATIONAL INSTITUTES OF BIOMEDICAL INOVATION HEALTH AND …, published 2023).

Assays:
[1] = biological target: T1, TNFR2 monomeric antigen (UniProt P20333 23-257, limits assumed); assay: SPR (BIAcore T200), antibody captured with human antibody capture kit, monomeric antigen as analyte
T1 construct: extracellular domain
T1 sequence (looked up): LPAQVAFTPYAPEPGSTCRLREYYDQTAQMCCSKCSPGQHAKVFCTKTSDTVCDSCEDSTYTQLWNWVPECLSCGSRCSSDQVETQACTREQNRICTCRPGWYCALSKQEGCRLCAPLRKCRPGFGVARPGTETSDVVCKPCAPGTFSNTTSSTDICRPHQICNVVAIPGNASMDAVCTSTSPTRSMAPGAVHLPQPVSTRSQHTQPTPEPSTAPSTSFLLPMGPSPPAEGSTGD
Procedure: Binding kinetics analysis and evaluation of each antibody to a monomeric antigen and dimeric antigen were conducted through surface plasmon resonance (SPR) using BIAcore T200 system (GE Healthcare). Monomeric and dimeric antigens were prepared. The affinity of each antibody to the monomeric and dimeric antigens was evaluated to study the presence/absence of intramolecular bridging activity. The SPR technology is based on measuring the index of refraction near the surface of a gold coated biosensor chip. A change in the index of refraction indicates a change in mass on the surface due to an interaction between an immobilized antibody and a monomeric or dimeric antigen infused into the solution. The mass increases when a molecule binds to an antibody immobilized on the surface, whereas the mass decreases when an analyte dissociates from an immobilized antibody. Analysis of a biparatopic antibody and the original monoclonal antibody by SPR can not only evaluate the performance of each antibody, but also see the effect of multivalent bond.
The monomeric and dimeric antigens were prepared as shown in the schematic diagram of FIG. 8. First, an etanercept (Pfizer), which is an Fc fusion protein of a TNFR2 extracellular region, was prepared, and a TNFR2 antigen molecule was obtained by enzymatic degradation and reductive re-oxidation reaction. An antibody was immobilized on a sensor chip using a human antibody capture kit according to the protocol by using a BIAcore T200 system (GE Healthcare). The interaction was analyzed by using the two types of antigens described above as analytes.

[2] = biological target: T2, tumor necrosis factor receptor 2 (TNFR2) expressed on cells (human, UniProt P20333 23-461); assay: flow cytometry on TNFR2-expressing Ramos-Blue cells, anti-human IgG-PE
T2 construct: whole, on cells; also called human TNFR2; TNFRSF1B
T2 sequence (looked up): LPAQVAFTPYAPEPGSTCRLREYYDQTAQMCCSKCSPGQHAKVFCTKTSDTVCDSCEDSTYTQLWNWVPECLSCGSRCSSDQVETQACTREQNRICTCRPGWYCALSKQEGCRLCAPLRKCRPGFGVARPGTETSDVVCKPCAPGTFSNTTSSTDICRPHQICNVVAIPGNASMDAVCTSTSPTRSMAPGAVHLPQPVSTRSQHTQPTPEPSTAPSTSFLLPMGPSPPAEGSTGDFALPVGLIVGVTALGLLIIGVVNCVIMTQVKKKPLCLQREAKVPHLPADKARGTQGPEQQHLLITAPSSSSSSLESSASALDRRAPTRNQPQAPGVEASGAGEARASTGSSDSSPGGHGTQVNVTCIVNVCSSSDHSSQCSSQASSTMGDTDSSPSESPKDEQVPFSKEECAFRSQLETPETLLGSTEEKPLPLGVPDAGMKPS
Procedure: Subsequently, binding affinity of each antibody was evaluated using Ramos-Blue reporter cells expressing TNFR2. Each antibody was added at concentrations of 0.01, 0.1, 1, 10, 100, 1000, 10000, and 100000 ng/mL to the TNFR2-Ramos-Blue cells used in a reporter assay, and the cells were incubated for 1 hour on ice. After centrifugation for 5 minutes at 1200 rpm, the supernatant was removed. After washing once with a FACS buffer, anti-human IgG-PE was added to each well. The samples were left standing for 30 minutes away from light on ice. After centrifugation for 5 minutes at 1200 rpm, the supernatant was removed. After washing once with a FACS buffer, fluorescence was analyzed with a flow cytometer (FCM). The mean value of fluorescence intensity was used as a value corresponding to the amount of binding. Experiments were independently conducted twice under the same condition.

Binder	binding result [1]	binding result [2]
Bp96-92 epitope region-bridging biparatopic antibody (bispecific antibody, V domains shown, N side Fab joined by split-intein trans-splicing to hinge and hole Fc; C side VH-CH1-hinge-knob Fc plus light chain; Human IgG1 constant regions) VH 1: EVQLQQSGAELVKPGASVKLSCTPSGFNIKDTYMHWVKQRPEQGLEWIGRIDPANGYTEYDPKFQDKATITADTSSNTAYLQLSSLTSEDTAVYYCADTQLYYWGQGTTLTVSS VL 1: QIVLTQSPAIMSASLGERVTMTCTASSSVSSTYLHWYQQKPGSSPKLWIYSTSNLASGVPARFSGSGSGTSYSLTISNMEAEDAATYYCHQYHRSPLTFGAGTKLELKR VH 2: KVQLQQSGAELVKPGASVKLSCKASGYTFTESIIHWVKQRSGQGLEWIGWFYPGSDNINYNEKFKDKATLTADKSSSTVYMELTRLTSEDSAVYFCASHEGPYVYFDYWGQGTTLTVSS VL 2: DIVMTQSHKFMSTSVGDRVSITCKASQDVSTAVAWYQQKPGQSPKLLIYWTSTRHTGVPDRFTGSGSGTDYTLTISSVQAEDLALYYCQHHYSTPYTFGGGTKLEIQR	binds	binds
Bp109-96 epitope region-bridging biparatopic antibody (bispecific antibody, V domains shown, N side Fab joined by split-intein trans-splicing to hinge and hole Fc; C side VH-CH1-hinge-knob Fc plus light chain; Human IgG1 constant regions) VH 1: QVQLKESGPGLVAPSQSLSITCTVSGFSLTVYGVNWVRQPPGKGLEWLGMIWGDGSTAYNSALKSRLTITKDNSKTQVFLKMNSLQTDDTARYYCARDGRRYALDYWGQGTSVTVSS VL 1: DIVLTQSPTSLAVSLGQRATISCRASESVDSYGDSFLHWYQQKPGQPPILLIYRASNLDSGIPARFSGSGSRTDFTLTINPVEADDVATYYCQQSNEDPYTFGGGTKLEINR VH 2: EVQLQQSGAELVKPGASVKLSCTPSGFNIKDTYMHWVKQRPEQGLEWIGRIDPANGYTEYDPKFQDKATITADTSSNTAYLQLSSLTSEDTAVYYCADTQLYYWGQGTTLTVSS VL 2: QIVLTQSPAIMSASLGERVTMTCTASSSVSSTYLHWYQQKPGSSPKLWIYSTSNLASGVPARFSGSGSGTSYSLTISNMEAEDAATYYCHQYHRSPLTFGAGTKLELKR	binds	binds
Bp109-94 epitope region-bridging biparatopic antibody (bispecific antibody, V domains shown, N side Fab joined by split-intein trans-splicing to hinge and hole Fc; C side VH-CH1-hinge-knob Fc plus light chain; Human IgG1 constant regions) VH 1: QVQLKESGPGLVAPSQSLSITCTVSGFSLTVYGVNWVRQPPGKGLEWLGMIWGDGSTAYNSALKSRLTITKDNSKTQVFLKMNSLQTDDTARYYCARDGRRYALDYWGQGTSVTVSS VL 1: DIVLTQSPTSLAVSLGQRATISCRASESVDSYGDSFLHWYQQKPGQPPILLIYRASNLDSGIPARFSGSGSRTDFTLTINPVEADDVATYYCQQSNEDPYTFGGGTKLEINR VH 2: QVQLQQSGAELARPGTSVKLSCKASGYTFTSYWMQWVKQTPGQGLEWIGAIYPGDGDSRYIQKFKGKATLTADKSSSTAYMQLSSLASEDSAVYYCARDGNYYAMDYWGQGTSVTVSS VL 2: QIVLTQSPAIMSASLGERVTITCTASSSVSSTYLHWYQQKPGSSPKLWIYSTSNLASGVPARFSGSGSGTSYSLTISSMEAEDAATYYCHQYHRSPPTFGAGTKLELKR	binds	binds
Bp45-94 epitope region-bridging biparatopic antibody (bispecific antibody, V domains shown, N side Fab joined by split-intein trans-splicing to hinge and hole Fc; C side VH-CH1-hinge-knob Fc plus light chain; Human IgG1 constant regions) VH 1: EVQLQQSGPEMEKPGASVKISCKASGYSFTGYNMNWVKQSIGKSLEWIGKIDPYYGGTDYNLRFKDKATLTVDKSSSTAYMHLSRLTSEDSAVYYCAREPNYGSNDWYFDVWGAGTTVTVSS VL 1: DIQVTQTTSSLSASLGDRVTISCRASQDIDNYLNWYQQRPDGTVKLLIYYTSILHSGVPSRFSGSGSRTDFSLTISSLEEEDFATYFCQQGNTLPWTFGGGTKLEFKR VH 2: QVQLQQSGAELARPGTSVKLSCKASGYTFTSYWMQWVKQTPGQGLEWIGAIYPGDGDSRYIQKFKGKATLTADKSSSTAYMQLSSLASEDSAVYYCARDGNYYAMDYWGQGTSVTVSS VL 2: QIVLTQSPAIMSASLGERVTITCTASSSVSSTYLHWYQQKPGSSPKLWIYSTSNLASGVPARFSGSGSGTSYSLTISSMEAEDAATYYCHQYHRSPPTFGAGTKLELKR	binds	binds
Bp45-92 epitope region-bridging biparatopic antibody (bispecific antibody, V domains shown, The N side Fab (VH-CH1 plus light chain) is joined by Cfa DnaE split-intein trans-splicing to the hinge and hole Fc; The C side is VH-CH1-hinge-knob Fc plus light chain; Human IgG1 constant regions) VH 1: EVQLQQSGPEMEKPGASVKISCKASGYSFTGYNMNWVKQSIGKSLEWIGKIDPYYGGTDYNLRFKDKATLTVDKSSSTAYMHLSRLTSEDSAVYYCAREPNYGSNDWYFDVWGAGTTVTVSS VL 1: DIQVTQTTSSLSASLGDRVTISCRASQDIDNYLNWYQQRPDGTVKLLIYYTSILHSGVPSRFSGSGSRTDFSLTISSLEEEDFATYFCQQGNTLPWTFGGGTKLEFKR VH 2: KVQLQQSGAELVKPGASVKLSCKASGYTFTESIIHWVKQRSGQGLEWIGWFYPGSDNINYNEKFKDKATLTADKSSSTVYMELTRLTSEDSAVYFCASHEGPYVYFDYWGQGTTLTVSS VL 2: DIVMTQSHKFMSTSVGDRVSITCKASQDVSTAVAWYQQKPGQSPKLLIYWTSTRHTGVPDRFTGSGSGTDYTLTISSVQAEDLALYYCQHHYSTPYTFGGGTKLEIQR		binds
Bp109-45 epitope region-bridging biparatopic antibody (bispecific antibody, V domains shown, N side Fab joined by split-intein trans-splicing to hinge and hole Fc; C side VH-CH1-hinge-knob Fc plus light chain; Human IgG1 constant regions) VH 1: QVQLKESGPGLVAPSQSLSITCTVSGFSLTVYGVNWVRQPPGKGLEWLGMIWGDGSTAYNSALKSRLTITKDNSKTQVFLKMNSLQTDDTARYYCARDGRRYALDYWGQGTSVTVSS VL 1: DIVLTQSPTSLAVSLGQRATISCRASESVDSYGDSFLHWYQQKPGQPPILLIYRASNLDSGIPARFSGSGSRTDFTLTINPVEADDVATYYCQQSNEDPYTFGGGTKLEINR VH 2: EVQLQQSGPEMEKPGASVKISCKASGYSFTGYNMNWVKQSIGKSLEWIGKIDPYYGGTDYNLRFKDKATLTVDKSSSTAYMHLSRLTSEDSAVYYCAREPNYGSNDWYFDVWGAGTTVTVSS VL 2: DIQVTQTTSSLSASLGDRVTISCRASQDIDNYLNWYQQRPDGTVKLLIYYTSILHSGVPSRFSGSGSRTDFSLTISSLEEEDFATYFCQQGNTLPWTFGGGTKLEFKR	binds	binds
